Laboratory results reported in PMC8673838, “MCPH1 inhibits Condensin II during interphase by regulating its SMC2-Kleisin interface” (eLife, 2021).

Experiments:
[1] = target: T1, MCPH1 1-435-MBP (Homo sapiens, UniProt Q8NEM0 1-435); experiment: EMSA; 50 nM DNA; EMSA with 50 nM 5'-Cy5 50 bp dsDNA; EMSA buffer, salt, pH and temperature not given in the material; details: protein: recombinant; tags: N-term 6xHis, C-term MBP; label: 5' Cy5; blunt
T1 sequence: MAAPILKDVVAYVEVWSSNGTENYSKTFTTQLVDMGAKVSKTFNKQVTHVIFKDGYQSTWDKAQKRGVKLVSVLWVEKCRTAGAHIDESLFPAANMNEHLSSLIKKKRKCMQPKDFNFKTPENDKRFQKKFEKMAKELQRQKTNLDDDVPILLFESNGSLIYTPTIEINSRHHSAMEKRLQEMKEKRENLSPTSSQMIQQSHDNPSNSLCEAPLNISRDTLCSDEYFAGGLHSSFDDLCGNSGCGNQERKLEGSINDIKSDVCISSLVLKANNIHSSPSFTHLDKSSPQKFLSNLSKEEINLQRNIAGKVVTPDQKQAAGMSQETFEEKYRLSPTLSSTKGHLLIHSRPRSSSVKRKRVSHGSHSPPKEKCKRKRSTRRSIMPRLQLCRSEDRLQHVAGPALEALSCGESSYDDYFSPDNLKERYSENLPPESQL

[2] = target: condensin II pentamer (Homo sapiens, UniProt O95347;Q9NTJ3;Q6IBW4;P42695;Q86XI2 1-1197;1-1288;1-605;1-1498;1-1143); experiment: EMSA; with MBP control or without peptide; EMSA with 50 nM 5'-Cy5 50 bp dsDNA; EMSA buffer, salt, pH and temperature not given in the material; details: protein: recombinant; tags: Strep tag; copies: 1;1;1;1;1; label: 5' Cy5; blunt
[3] = target: condensin II pentamer;MCPH1 1-435-MBP (Homo sapiens;Homo sapiens, UniProt O95347;Q9NTJ3;Q6IBW4;P42695;Q86XI2;Q8NEM0 …, |); experiment: EMSA; condensin II bands shifted upward with MCPH1 1-435-MBP; EMSA with 50 nM 5'-Cy5 50 bp dsDNA; EMSA buffer, salt, pH and temperature not given in the material; details: protein: recombinant;recombinant; tags: Strep tag;N-term 6xHis, C-term MBP; copies: 1;1;1;1;1;1; label: 5' Cy5; blunt

Measured: binding result

B1: 50 bp dsDNA (dsDNA)
DNA 1: CTGTCACACCCTGTCACACCCTGTCACACCCTGTCACACCCTGTCACACC
DNA 2: GGTGTGACAGGGTGTGACAGGGTGTGACAGGGTGTGACAGGGTGTGACAG
binds: [1] | [2] | [3]
